{
  "source": "patent US20250011363A1",
  "about": "“OPTIMIZED SHORTENED PEPTIDE THAT BINDS TO ACETYLCHOLINE RECEPTOR, AND USE THEREOF” (SKINMED CO., LTD., priority 2021, published 2025)",
  "key": {"[1]": {"molecular_target": "acetylcholine receptor", "test": "SPR, AchR immobilized on chip"}, "[2]": {"molecular_target": "acetylcholine receptor on acetylcholine receptor-overexpressing TE671 cells", "test": "cell-based or functional assay"}},
  "data": [
    {"substance": "Synake (peptide)", "values": [
      {"measurement": "Binding affinity (RU)", "setting": "[1]", "result": 14, "unit": "RU"},
      {"measurement": "inhibition of acetylcholine receptors (calcium imaging with Fura-2-AM, TE671 cells, nicotine 400 uM)", "setting": "[2]", "result": 500, "unit": "µM"}
    ]}
  ]
}
